Assay results: the Immune Epitope Database (IEDB)

Columns and labels:
HLA-A*11:01 = test: IEDB peptide-MHC binding, purified MHC/direct/fluorescence; filed as Kd, often an IC50 or EC50 that approximates it; ≥ and ≤ were set here for values at or beyond the usual limits of such assays
HLA-B*57:01 [1] = test: as above
HLA-B*58:01 = test: as above
HLA-A*01:01 = test: as above
HLA-A*02:01 [2] = test: as above
HLA-B*08:01 = test: as above
HLA-B*08:03 = test: as above; details: source organism: Francisella tularensis subsp. tularensis FSC033
HLA-A*68:02 [3] = test: as above
HLA-A*26:01 [4] = test: as above
HLA-A*69:01 [5] = test: as above
HLA-B*18:01 [6] = test: as above
HLA-A*31:01 = test: as above
HLA-B*15:01 [7] = test: IEDB peptide-MHC binding, purified MHC/competitive/fluorescence; filed as Kd, often an IC50 or EC50 that approximates it; ≥ and ≤ were set here for values at or beyond the usual limits of such assays
HLA-A*30:01 = test: as above; details: source organism: Francisella tularensis subsp. tularensis FSC198
HLA-B*07:02 [8] = test: as above; details: source organism: Francisella tularensis subsp. tularensis FSC198
HLA-A*26:02 = test: as above; details: source organism: Francisella tularensis subsp. tularensis FSC198
HLA-A*02:03 = test: as above; details: source organism: Francisella tularensis subsp. tularensis FSC198
HLA-B*15:17 [9] = test: as above
HLA-B*39:01 = test: as above
HLA-B*57:01 [10] = test: as above
HLA-A*03:01 [11] = test: as above; details: source organism: Pan troglodytes
HLA-A*02:01 [12] = test: as above
HLA-B*46:01 = test: as above; details: source organism: Pan troglodytes
HLA-B*51:01 = test: as above
HLA-A*68:02 [13] = test: as above; details: source organism: Pan troglodytes
HLA-B*27:03 = test: as above
HLA-A*26:01 [14] = test: as above
HLA-A*69:01 [15] = test: as above
HLA-B*18:01 [16] = test: as above
HLA-B*15:17 [17] = test: IEDB peptide-MHC binding, purified MHC/direct/fluorescence; filed as Kd, often an IC50 or EC50 that approximates it; ≥ and ≤ were set here for values at or beyond the usual limits of such assays; details: source organism: Marburg virus - Musoke, Kenya, 1980
HLA-B*27:05 = test: as above
HLA-B*40:01 = test: as above
HLA-B*48:01 = test: as above; details: source organism: Marburg virus - Musoke, Kenya, 1980
HLA-B*07:02 [18] = test: as above
HLA-B*15:09 = test: as above; details: source organism: Ravn virus - Ravn, Kenya, 1987
HLA-A*02:06 = test: IEDB peptide-MHC binding, purified MHC/competitive/fluorescence; filed as Kd, often an IC50 or EC50 that approximates it; ≥ and ≤ were set here for values at or beyond the usual limits of such assays; details: source organism: Orthomarburgvirus marburgense
HLA-A*29:02 = test: IEDB peptide-MHC binding, purified MHC/direct/fluorescence; filed as Kd, often an IC50 or EC50 that approximates it; ≥ and ≤ were set here for values at or beyond the usual limits of such assays; details: source organism: Limestone Canyon virus
HLA-A*03:01 [19] = test: as above
HLA-A*02:19 = test: as above; details: source organism: Limestone Canyon virus
HLA-A*02:16 = test: as above; details: source organism: Limestone Canyon virus
HLA-A*02:12 = test: as above; details: source organism: Limestone Canyon virus
HLA-C*15:02 = test: as above; details: source organism: Four Corners hantavirus
HLA-B*15:01 [20] = test: as above; details: source organism: Salmonella enterica subsp. enterica serovar Typhi
HLA-B*35:01 = test: as above; details: source organism: Salmonella enterica subsp. enterica serovar Typhi
HLA-B*44:02 = test: as above; details: source organism: Salmonella enterica subsp. enterica serovar Typhi
HLA-A*24:03 = test: as above; details: source organism: Salmonella enterica subsp. enterica serovar Typhi
[21] = source organism: Francisella tularensis subsp. holarctica LVS
[22] = source organism: Pan troglodytes
[23] = source organism: Marburg virus - Musoke, Kenya, 1980
[24] = source organism: Ravn virus - Ravn, Kenya, 1987
[25] = source organism: Four Corners hantavirus
[26] = source organism: Salmonella enterica subsp. enterica serovar Typhi

EFKRRLKDL was tested, and the Kd (HLA-A*11:01; [21]) was no less than 20 µM, the Kd (HLA-B*57:01 [1]; [21]) was no less than 20 µM and the Kd (HLA-B*58:01; [21]) was no less than 20 µM. For the same sequence, the Kd (HLA-A*01:01; [21]) was no less than 20 µM, the Kd (HLA-A*02:01 [2]; [21]) was no less than 20 µM and the Kd (HLA-B*08:01; [21]) was 0.0523 µM. The Kd (HLA-B*08:03) was no less than 20 µM, the Kd (HLA-A*68:02 [3]; [21]) was no less than 20 µM and the Kd (HLA-A*26:01 [4]; source organism: Francisella tularensis subsp. tularensis FSC033) was no less than 20 µM. For the same sequence, the Kd (HLA-A*69:01 [5]; [21]) was no less than 20 µM, the Kd (HLA-B*18:01 [6]; [21]) was no less than 20 µM and the Kd (HLA-A*31:01; [21]) was no less than 20 µM. The Kd (HLA-B*15:01 [7]; source organism: Francisella tularensis subsp. tularensis FSC198) was no less than 20 µM, the Kd (HLA-A*30:01) was no less than 20 µM and the Kd (HLA-B*07:02 [8]) was no less than 20 µM. For the same sequence, the Kd (HLA-A*26:02) was no less than 20 µM and the Kd (HLA-A*02:03) was no less than 20 µM.
Work on FLFDRLTNG yielded a Kd (HLA-B*15:17 [9]; [22]) of no less than 20 µM, a Kd (HLA-B*39:01; [22]) of no less than 20 µM and a Kd (HLA-B*57:01 [10]; [22]) of no less than 20 µM. It also gave a Kd (HLA-A*03:01 [11]) of no less than 20 µM, a Kd (HLA-B*15:01 [7]; [22]) of no less than 20 µM and a Kd (HLA-A*02:01 [12]; [22]) of 0.0015 µM. For the same sequence, the Kd (HLA-B*46:01) was no less than 20 µM, the Kd (HLA-B*51:01; [22]) was no less than 20 µM and the Kd (HLA-A*68:02 [13]) was no less than 20 µM. For the same sequence, the Kd (HLA-B*27:03; [22]) was no less than 20 µM, the Kd (HLA-A*26:01 [14]; [22]) was no less than 20 µM and the Kd (HLA-A*69:01 [15]; [22]) was no less than 20 µM. It also gave a Kd (HLA-B*18:01 [16]; [22]) of no less than 20 µM.
GEGSGARLL was tested, and the Kd (HLA-B*15:17 [17]) was no less than 20 µM, the Kd (HLA-A*11:01; [23]) was no less than 20 µM and the Kd (HLA-B*57:01 [1]; [23]) was no less than 20 µM. For the same sequence, the Kd (HLA-B*58:01; [23]) was no less than 20 µM, the Kd (HLA-A*01:01; [23]) was no less than 20 µM and the Kd (HLA-B*08:01; [24]) was no less than 20 µM. It also gave a Kd (HLA-A*68:02 [3]; [23]) of no less than 20 µM, a Kd (HLA-B*27:05; [23]) of no less than 20 µM and a Kd (HLA-B*40:01; [23]) of 0.279 µM. The Kd (HLA-B*48:01) was no less than 20 µM, the Kd (HLA-A*26:01 [4]; [24]) was no less than 20 µM and the Kd (HLA-A*69:01 [5]; [23]) was no less than 20 µM. It also gave a Kd (HLA-B*18:01 [6]; [23]) of no less than 20 µM, a Kd (HLA-B*07:02 [18]; [23]) of no less than 20 µM and a Kd (HLA-A*31:01; [23]) of no less than 20 µM. It also gave a Kd (HLA-B*15:09) of no less than 20 µM, a Kd (HLA-A*02:01 [12]; source organism: Orthomarburgvirus marburgense) of 4.69 µM and a Kd (HLA-A*02:06) of 1.14 µM.
KARNIISPV gave a Kd (HLA-A*29:02) of no less than 20 µM, a Kd (HLA-A*03:01 [19]; source organism: Limestone Canyon virus) of no less than 20 µM and a Kd (HLA-A*02:19) of no less than 20 µM. It also gave a Kd (HLA-A*02:16) of no less than 20 µM, a Kd (HLA-B*07:02 [18]; source organism: Hantavirus Monongahela-3) of 0.107 µM and a Kd (HLA-A*02:12) of no less than 20 µM. It also gave a Kd (HLA-C*15:02) of 0.088 µM, a Kd (HLA-B*15:17 [9]; [25]) of no less than 20 µM and a Kd (HLA-B*39:01; [25]) of no less than 20 µM. The Kd (HLA-B*57:01 [10]; [25]) was no less than 20 µM, the Kd (HLA-B*15:01 [7]; [25]) was no less than 20 µM and the Kd (HLA-B*51:01; [25]) was no less than 20 µM. For the same sequence, the Kd (HLA-B*27:03; [25]) was no less than 20 µM, the Kd (HLA-A*26:01 [14]; [25]) was no less than 20 µM and the Kd (HLA-A*69:01 [15]; [25]) was no less than 20 µM. It also gave a Kd (HLA-B*18:01 [16]; [25]) of no less than 20 µM.
LPLIVDTAA gave a Kd (HLA-A*11:01; [26]) of no less than 20 µM, a Kd (HLA-A*03:01 [19]; [26]) of no less than 20 µM and a Kd (HLA-B*58:01; [26]) of no less than 20 µM. The Kd (HLA-B*15:01 [20]) was no less than 20 µM, the Kd (HLA-A*01:01; [26]) was no less than 20 µM and the Kd (HLA-A*02:01 [2]; [26]) was no less than 20 µM. It also gave a Kd (HLA-B*08:01; [26]) of 11.2 µM, a Kd (HLA-B*35:01) of 0.00636 µM and a Kd (HLA-B*44:02) of no less than 20 µM. The Kd (HLA-A*24:03) was no less than 20 µM, the Kd (HLA-B*27:05; [26]) was no less than 20 µM and the Kd (HLA-B*40:01; [26]) was no less than 20 µM. The Kd (HLA-A*26:01 [4]; [26]) was no less than 20 µM, the Kd (HLA-A*69:01 [5]; [26]) was no less than 20 µM and the Kd (HLA-B*07:02 [18]; [26]) was 5.75 µM. For the same sequence, the Kd (HLA-A*31:01; [26]) was no less than 20 µM.
